Experimental findings from paper PMC7144912 (Nucleic Acids Research, 2020) are described below.

The data set “crystal structure” concerns the molecule itself. Description: crystal structure.
Data set [1] addresses T1, DNMT3B catalytic domain (3B-CD);DNMT3L catalytic-like domain (3L-CD) (Homo sapiens;Homo sapiens, UniProt Q9UBC3;Q9UJW3 571-853;178-379, |). Put plainly: X-ray crystallography.
Data set [2] concerns the target T1, DNMT3B catalytic domain (3B-CD);DNMT3L …. Put plainly: X-ray crystallography. The source holds these as a separate data set.

Read-outs that look alike come from different tables or passages of the source.

T1 sequence (Q9UJW3 178-379, one chain of several): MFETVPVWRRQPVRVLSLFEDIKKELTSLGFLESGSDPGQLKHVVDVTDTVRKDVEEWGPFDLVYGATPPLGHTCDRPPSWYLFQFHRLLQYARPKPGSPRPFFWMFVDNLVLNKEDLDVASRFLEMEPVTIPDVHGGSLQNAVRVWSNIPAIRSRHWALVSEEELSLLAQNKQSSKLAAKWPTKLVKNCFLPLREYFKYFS

B1: catalytic domain of human DNMT3B (3B-CD, residues 571–853) (domain or fragment, UniProt Q9UBC3 571-853, looked up)
chain: RRRPIRVLSLFDGIATGYLVLKELGIKVGKYVASEVCEESIAVGTVKHEGNIKYVNDVRNITKKNIEEWGPFDLVIGGSPCNDLSNVNPARKGLYEGTGRLFFEFYHLLNYSRPKEGDDRPFFWMFENVVAMKVGDKRDISRFLECNPVMIDAIKVSAAHRARYFWGNLPGMNRPVIASKNDKLELQDCLEYNRIAKLKKVQTITTKSNSIKQGKNQLFPVVMNGKEDVLWCTELERIFGFPVHYTDVSNMGRGARQKLLGRSWSVPVIRHLFAPLKDYFACE
With B1, the binding result in the data set “crystal structure” was “binds”.

B2: CpGpG crystallization duplex (dsDNA)
DNA 1: GAATTCGGAAAAATTTTTCCGAATT
DNA 2: GAATTCGGAAAAATTTTTCCGAATT
Take B2: the binding result in data set [1] is “binds”.

B3: CpGpT crystallization duplex (dsDNA)
DNA 1: GCATGCGTTCTAATTAGAACGCATG
DNA 2: GCATGCGTTCTAATTAGAACGCATG
As to B3, the binding result in data set [2] is “binds”.
